Patent publication US20060276387A1 (published 2006)

B1: human hepatocyte nuclear factor 3-gamma (HNF3G), N-terminus HA-tagged (other, not shown: small tags and cut ends)
chain: MLGSVKMEAHDLAEWSYYPEAGEVYSPVTPVPTMAPLNSYMTLNPLSSPYPPGGLPASPLPSGPLAPPAPAAPLGPTFPGLGVSGGSSSSGYGAPGPGLVHGKEMPKGYRRPLAHAKPPYSYISLITMAIQQAPGKMLTLSEIYQWIMDLFPYYRENQQRWQNSIRHSLSFNDCFVKVARSPDKPGKGSYWALHPSSGNMFENGCYLRRQKRFKLEEKVKKGGSGAATTTRNGTGSAASTTTPAATVTSPPQPPPPAPEPEAQGGEDVGALDCGSPASSTPYFTGLELPGELKLDAPYNFNHPFSINNLMSEQTPAPPKLDVGFGGYGAEGGEPGVYYQGLYSRSLLNAS
modifications: 35S-methionine-labeled (in the pull-down)
B2: human PHD finger protein 1 (PHF1), N-terminus HA-tagged (other, not shown: small tags and cut ends)
chain: MAQPPRLSRSGASSLWDPASPAPTSGPRPRLWEGQDVLARWTDGLLYLGTIKKVDSAREVCLVQFEDDSQFLVLWKDISPAALPGEELLCCVCRSETVVPGNRLVSCEKCRHAYHQDCHVPRAPAPGEGEGTSWVCRQCVFAIATKRGGALKKGPYARAMLGMKLSLPYGLKGLDWDAGHLSNRQQSYCYCGGPGEWNLKMLQCRSCLQWFHEACTQCLSKPLLYGDRFYEFECCVCRGGPEKVRRLQLRWVDVAHLVLYHLSVCCKKKYFDFDREILPFTSENWDSLLLGELSDTPKGERSSKLLSALNSHKDRFISGREIKKRKCLFGLHARMPPPVEPPTGDGALTSFPSGQGPGGGVSRPLGKRRRPEPEPLRRRQKGKVEELGPPSAVRNQPEPQEQRERAHLQRALQASVSPPSPSPNQSYQGSSGYNFRPTDARCLPSSPIRMFASFHPSASTAGTSGDSGPPDRSPLELHIGFPTDIPKSAPHSMTASSSSVSSPSPGLPRRSAPPSPLCRSLSPGTGGGVRGGVGYLSRGDPVRVLARRVRPDGSVQYLVEWGGGGIF
modifications: 35S-methionine-labeled (in the pull-down)
B3: human distal-less homeobox 4 (DLX4), N-terminus HA-tagged (other, not shown: small tags and cut ends)
chain: MTSLPCPLPGRDASKAVFPDLAPVPSVAAAYPLGLSPTTAASPNLSYSRPYGHLLSYPYTEPANPGDSYLSCQQPAALSQPLCGPAEHPQELEADSEKPRLSPEPSERRPQAPAKKLRKPRTIYSSLQLQHLNQRFQHTQYLALPERAQLAAQLGLTQTQVKIWFQNKRSKYKKLLKQNSGGQEGDFPGRTFSVSPCSPPLPSLWDLPKAGTLPTSGYGNSFGAWYQHHSSDVLASPQMM
modifications: 35S-methionine-labeled (in the pull-down)

These binders were tested against human IPF1, N-terminus FLAG-tagged (from pcDNA-FLAG-IPF1) (human, UniProt P52945 1-283, limits assumed) (assay: cell-based or functional assay).
Sequence of human IPF1, N-terminus FLAG-tagged (from pcDNA-FLAG-IPF1) (P52945 whole entry): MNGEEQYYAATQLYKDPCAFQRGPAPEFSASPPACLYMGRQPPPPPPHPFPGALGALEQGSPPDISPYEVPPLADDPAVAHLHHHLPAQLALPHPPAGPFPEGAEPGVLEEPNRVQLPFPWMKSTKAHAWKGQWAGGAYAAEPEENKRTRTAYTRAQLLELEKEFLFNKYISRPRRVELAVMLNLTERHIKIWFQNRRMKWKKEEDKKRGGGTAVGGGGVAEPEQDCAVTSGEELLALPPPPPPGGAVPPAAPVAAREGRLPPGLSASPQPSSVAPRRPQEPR

| Binder | IPF1-dependent human insulin promoter activity (luciferase reporter, HeLa cells), inhibition [%] |
| --- | --- |
| B1 | ~45 |
| B2 | ~25 |
| B3 | ~60 |
